# B1: m-αS Δ104–140 (domain or fragment)
# chain: not shown
# Target: the molecule itself
# Assay: thioflavin T fluorescence of fibril formation; monomeric αS (50 μM in Fig. 5; 20–200 μM in Fig. 4) with 10 μM ThT, 96-well plates with Teflon polybeads, shaking at 500 rpm, 37 °C (other temperatures in Fig. 6), PBS
protein,measurement,value
B1,binding result,binds

# — publication PMC10322983, “Intramolecular interaction kinetically regulates fibril formation by human and mouse α-synuclein” (Scientific Reports, 2023)
